Test results taken from patent US20180291082A1 (IMMATICS BIOTECHNOLOGIES, published 2018).
Blank lines part the entries; values can stand above or below the binder they belong to.

What was measured:
Assay in all cases: UV-ligand exchange, anti-b2m ELISA; exchange yield grade (+ >10%, ++ >20%, +++ >50, ++++ >75%)
[1] = molecular target: T1, HLA-A*01:01 (human)
T1 construct: Peptide-receptive MHC monomer made by UV cleavage of a UV-sensitive peptide
Excerpt: (§1) Candidate peptides for T cell based therapies according to the present invention were further tested for their MHC binding capacity (affinity). The individual peptide-MHC complexes were produced by UV-ligand exchange, where a UV-sensitive peptide is cleaved upon UV-irradiation, and exchanged with the peptide of interest as analyzed. Only peptide candidates that can effectively bind and stabilize the peptide-receptive MHC molecules prevent dissociation of the MHC complexes. To determine the yield of the exchange reaction, an ELISA was performed based on the detection of the light chain (β2m) of stabilized MHC complexes. The assay was performed as generally described in Rodenko et al. (Rodenko et al., 2006).
(§2) 96 well MAXISorp plates (NUNC) were coated over night with 2 ug/ml streptavidin in PBS at room temperature, washed 4× and blocked for 1 h at 37° C. in 2% BSA containing blocking buffer. Refolded HLA-A*02:01/MLA-001 monomers served as standards, covering the range of 15-500 ng/ml. Peptide-MHC monomers of the UV-exchange reaction were diluted 100-fold in blocking buffer. Samples were incubated for 1 h at 37° C., washed four times, incubated with 2 ug/ml HRP conjugated anti-β2m for 1 h at 37° C., washed again and detected with TMB solution that is stopped with […]. Absorption was measured at 450 nm. Candidate peptides that show a high exchange yield (preferably higher than 50%, most preferred higher than 75%) are generally preferred for a generation and production of antibodies or fragments thereof, and/or T cell receptors or fragments thereof, as they show sufficient avidity to the MHC molecules and prevent dissociation of the MHC complexes.

[2] = molecular target: T2, HLA-B*07:02 (human)
T2 construct: Peptide-receptive MHC monomer made by UV cleavage of a UV-sensitive peptide
Excerpt: as §1, §2

[3] = molecular target: T3, HLA-A*03:01 (human)
T3 construct: Peptide-receptive MHC monomer made by UV cleavage of a UV-sensitive peptide
Excerpt: as §1, §2

peptide exchange yield [1]: 50 to 75%
B1: YAAYIIHAY (peptide)
peptide: YAAYIIHAY

peptide exchange yield [2]: 50 to 75%
B2: RPAPADSAL (peptide)
peptide: RPAPADSAL

peptide exchange yield [1]: 10 to 20%
B3: SVTDLEMPHY (peptide)
peptide: SVTDLEMPHY

peptide exchange yield [2]: 50 to 75%
B4: SPGDKRLAA (peptide)
peptide: SPGDKRLAA

peptide exchange yield [1]: 50 to 75%
B5: YSHAAGQGTGLY (peptide)
peptide: YSHAAGQGTGLY

peptide exchange yield [2]: 20 to 50%
B6: VVHPRTLLL (peptide)
peptide: VVHPRTLLL

peptide exchange yield [1]: 50 to 75%
B7: STDEITTRY (peptide)
peptide: STDEITTRY

peptide exchange yield [1]: 20 to 50%
B9: NSDLKYNAL (peptide)
peptide: NSDLKYNAL

peptide exchange yield [1]: 50 to 75%
B12: RSDPGGGGLAY (peptide)
peptide: RSDPGGGGLAY

peptide exchange yield [2]: 20 to 50%
B14: VPERGEPEL (peptide)
peptide: VPERGEPEL

peptide exchange yield [1]: 20 to 50%
B16: LSLIDRLVLY (peptide)
peptide: LSLIDRLVLY

peptide exchange yield [1]: 50 to 75%
B19: YTERDGSAMVY (peptide)
peptide: YTERDGSAMVY

peptide exchange yield [2]: 50 to 75%
B20: RVPSYTLIL (peptide)
peptide: RVPSYTLIL

peptide exchange yield [1]: 50 to 75%
B22: RSDPVTLNV (peptide)
peptide: RSDPVTLNV

peptide exchange yield [1]: 50 to 75%
B24: VSNGKWLLY (peptide)
peptide: VSNGKWLLY

peptide exchange yield [1]: 50 to 75%
B25: VLDSHIHAY (peptide)
peptide: VLDSHIHAY

peptide exchange yield [1]: 50 to 75%
B26: LTDYINANY (peptide)
peptide: LTDYINANY

peptide exchange yield [2]: 20 to 50%
B28: VPDGVSKVL (peptide)
peptide: VPDGVSKVL

peptide exchange yield [2]: 50 to 75%
B29: SPIKVPLLL (peptide)
peptide: SPIKVPLLL

peptide exchange yield [1]: > 75%
B31: YSDLHAFYY (peptide)
peptide: YSDLHAFYY

peptide exchange yield [2]: 20 to 50%
B32: SPSPGKDPTL (peptide)
peptide: SPSPGKDPTL

peptide exchange yield [1]: 10 to 20%
B36: TASEDVFQY (peptide)
peptide: TASEDVFQY

peptide exchange yield [1]: 20 to 50%
B38: SILGSDVRVPSY (peptide)
peptide: SILGSDVRVPSY

peptide exchange yield [1]: 50 to 75%
B40: YTDKLQHY (peptide)
peptide: YTDKLQHY

peptide exchange yield [2]: 20 to 50%
B42: NPYEGRVEV (peptide)
peptide: NPYEGRVEV

peptide exchange yield [1]: 50 to 75%
B44: TLEQVQLYY (peptide)
peptide: TLEQVQLYY

peptide exchange yield [1]: 50 to 75%
B46: VLDLSTNVY (peptide)
peptide: VLDLSTNVY

peptide exchange yield [1]: 10 to 20%
B47: YTHHLFIFY (peptide)
peptide: YTHHLFIFY

peptide exchange yield [1]: 20 to 50%
B50: RSPNNFLSY (peptide)
peptide: RSPNNFLSY

peptide exchange yield [2]: 20 to 50%
B56: YPLTGDTRL (peptide)
peptide: YPLTGDTRL

peptide exchange yield [1]: 50 to 75%
B58: LTDSFPLKV (peptide)
peptide: LTDSFPLKV

peptide exchange yield [3]: 50 to 75%
B60: RLFESSFHY (peptide)
peptide: RLFESSFHY

peptide exchange yield [1]: 20 to 50%
B61: TPVTEFSLNTY (peptide)
peptide: TPVTEFSLNTY

peptide exchange yield [1]: 50 to 75%
B62: STDIGALMY (peptide)
peptide: STDIGALMY

peptide exchange yield [1]: > 75%
B63: VTDLEMPHY (peptide)
peptide: VTDLEMPHY

peptide exchange yield [1]: 50 to 75%
B64: LTDYLKNTY (peptide)
peptide: LTDYLKNTY

Second part, the binder before the results:

B8: LITGDPKAAYDY (peptide)
peptide: LITGDPKAAYDY
peptide exchange yield [1]: 20 to 50%

B10: EVLDSHIHAY (peptide)
peptide: EVLDSHIHAY
peptide exchange yield [1]: 10 to 20%

B11: EVSNGKWLLY (peptide)
peptide: EVSNGKWLLY
peptide exchange yield [1]: 50 to 75%

B13: LSAGSGPGQY (peptide)
peptide: LSAGSGPGQY
peptide exchange yield [1]: 50 to 75%

B15: GSTMVEHNY (peptide)
peptide: GSTMVEHNY
peptide exchange yield [1]: 20 to 50%

B17: IPSRLLAIL (peptide)
peptide: IPSRLLAIL
peptide exchange yield [2]: 50 to 75%

B18: FSDKELAAY (peptide)
peptide: FSDKELAAY
peptide exchange yield [1]: > 75%

B21: RSDPVTLDV (peptide)
peptide: RSDPVTLDV
peptide exchange yield [1]: 50 to 75%

B23: FADKIHLAY (peptide)
peptide: FADKIHLAY
peptide exchange yield [1]: 50 to 75%

B27: KPSSKALGTSL (peptide)
peptide: KPSSKALGTSL
peptide exchange yield [2]: 50 to 75%

B30: KTYVGHPVKM (peptide)
peptide: KTYVGHPVKM
peptide exchange yield [3]: 50 to 75%

B33: ITDFNNIRY (peptide)
peptide: ITDFNNIRY
peptide exchange yield [1]: 50 to 75%

B34: FPAHPSLLL (peptide)
peptide: FPAHPSLLL
peptide exchange yield [2]: 20 to 50%

B35: APAAVPSAPA (peptide)
peptide: APAAVPSAPA
peptide exchange yield [2]: 50 to 75%

B37: IPEPSAQQL (peptide)
peptide: IPEPSAQQL
peptide exchange yield [2]: 20 to 50%

B39: ASSTDSASYY (peptide)
peptide: ASSTDSASYY
peptide exchange yield [1]: 50 to 75%

B41: LPSPTDSNFY (peptide)
peptide: LPSPTDSNFY
peptide exchange yield [1]: 20 to 50%

B43: FPYPYAERL (peptide)
peptide: FPYPYAERL
peptide exchange yield [2]: 20 to 50%

B45: ITAQNHGY (peptide)
peptide: ITAQNHGY
peptide exchange yield [1]: 20 to 50%

B48: HPQVVILSL (peptide)
peptide: HPQVVILSL
peptide exchange yield [2]: 50 to 75%

B49: ATVGYFIFY (peptide)
peptide: ATVGYFIFY
peptide exchange yield [1]: 20 to 50%

B51: GPGTRLSL (peptide)
peptide: GPGTRLSL
peptide exchange yield [2]: 20 to 50%

B52: LDSHIHAY (peptide)
peptide: LDSHIHAY
peptide exchange yield [1]: 10 to 20%

B53: FITAQNHGY (peptide)
peptide: FITAQNHGY
peptide exchange yield [1]: 20 to 50%

B54: FASDLLHLY (peptide)
peptide: FASDLLHLY
peptide exchange yield [1]: 20 to 50%

B55: LMKEVMEHY (peptide)
peptide: LMKEVMEHY
peptide exchange yield [1]: 20 to 50%

B57: ITFGERFEY (peptide)
peptide: ITFGERFEY
peptide exchange yield [1]: 50 to 75%

B59: FELPTGAGLQL (peptide)
peptide: FELPTGAGLQL
peptide exchange yield [2]: 20 to 50%
